Molecular target: acetylated α-tubulin
Assay: cell-based or functional assay

histone deacetylase 6 (HDAC6), full-length, His6 fused at N-terminal (from UniProt Q9UBN7 1-1215)
decrease in degree of acetylation of α-tubulin (Western blot of HeLa cells overexpressing HDAC6): 50%

Source: patent US20030216345A1
